Experiment: yeast display, Sf9 membrane polyspecificity reagent, FACS + sequencing; frameworks hold sequencing errors
Method in brief: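 Using colony PCR, genes from sorted yeast display clones were amplified, then sequenced on MiSeq at 2 × 250 and filtered by CDR length. The clones had been stained with 10% biotinylated, detergent-solubilized Sf9 membrane reagent for 1 hour at 4 °C and sorted by FACS into low and high (top ~1%) gates on anti-HA and streptavidin fluorescence. Polyreactivity labels come from the gate of origin.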

Sequence	polyreactivity (PSR sort gate)
QVQLVESGGGLVQAGGSHRLSCAASGRLFSWNAMGWYRQAPGTERELVAAITNGGGTYYADSVKGRFTISRDNAKNTVYLQMNSLKPEDTAVYYCNAYRRKLWYPTGLYWGQGTQVTVSS	high polyreactivity
QVQLVESGGGLVQAGGSLRLSCAASGSTFVKNVMGWYRQAPGKERELVAGITRGGSTYYADSVKGRFTISRDNAKNTVYLQMNSLKPEDTAVYYCAAARWSQYRTWMNYWGQGTQVTVSS	high polyreactivity
QVQLVESGGGLVQAGGSLRLSCAASGNIFVPNAMGWYRQAPGKERGLVAAIRRGGSTNYADSVKGRFTISRDNAKNNVYLQMNSLKPEDTGVYYCARSRVSFTDLEGYYWGQGTQVTVSS	low polyreactivity
QVQLVESGGGLVQAGGSLGLTCAASGFILAQNAMGWYRQAPGKERELVAAISRRGGRTSYADSVKGRFTISRDYAKNTVYLQMNSLKPEDTAVYYCAALPPRASSDAGGWYVAEDYWGQGTQVTVSS	high polyreactivity
QDHLVESGGGLVQAGGSLRLTCAASGSIFADYTMGWYRQATGKEMELVAAINNRDGGTYYADSVKGRFTISRDNAKNTVYLEMNSLKPEDTAVYYCTKQVDLSGQWDFWYGYYTYDYWGQGTQLTVSS	low polyreactivity
QVQLVESGGGLFQAGGSLRLSCAASGSTFVANAMGWYRQAPGKERELVAAISSSGGSTYYADSVKGRFTISRDIAKNTVYLQMNSLKHDDTAVYYCNARSISRKKGYPPQRRDGYWGQGTQVTVSS	high polyreactivity
QVQLVESGGGLVQAGGSLRLSCAASGIIFRTYAMGCYRQAPGKERELVAAITGSGGITYYADSVKGRFTISRDNAKNTVYLQMNSLKPEDTAVYYCAARGTRDGVQRYGYWGQGTQVTVSS	high polyreactivity
QVQIVESGGGLVQAGRSLRLSCAASGIIFRRYAMGWYRQAPGKETELVAAISSRGGSTYYADSVKGRFTISRDNAKNTVYLQMNSLKPEDTAVYYCAKGFSGTGGSGDFGYWGQGTQVTVSS	high polyreactivity
QVQLVESGGGLVQAGGSLRLSCAASGFTFGWNAMGWYRQAPGKERELVAAITSGGITNYADSVKGRFTISRDNAMNTVYLQMNSLKPEDTAVYYCNARPTSRRSWYYWKGYDYWGQGTQVTVSS	high polyreactivity
QVQLVESGGGLVQAGGSLRLSCAASGITFRYYAMGWDRQAPGKERELVAAINRGGDSTYYADSVKGRFTISRDNAKNTVYLQMNSLKPEDTAVYYCAASSYYRGTFYPSYYWGQGTQVTVSS	high polyreactivity
QVQLVESGGGLVQAGGSLRLSCAASGRTFWGYTMGWYRQAPGKERELVAAITASGGSTRYADSVKGRFTISRDNAKNTVYLQMNSLKPEDTAVYYCASRGQYFTDYYYRGNYWGQGTQVTVSS	high polyreactivity
QVQLVESGGGLVQAGGSLRLSCAASGSIFTYKAMGWYRQAPGKERELVAAIRQRGGSTYYADSVKGRFTISRDNAKNTVYLQKNSLKPEDTAVYYCAARGSYVRSYYYYWGQGTQVTVSS	high polyreactivity
QVQLVESGGGLVQAGGSLRISCAASGFTFRYNAMGWYRQAPVKERELVATISSRGGSTNYADSVKGRFTISRDNAKNTVYLLMNSLKPEDTAVYYCNNVRYRDLKRYDYWGQGTQVTVSS	high polyreactivity
QVQLVESGGCLVQAGGSLRLSCAASGSTFLINAMGWYRQAPGKEREFVASIRYRGATTYADSVKGRFTISRDNAKNTVYLQMNTLKPEDTAVYYCAASIWLRYHWGYDYWGQGTQVTVSS	high polyreactivity
QVQLVESGGGLVQAGGSLRLSCAASGSIFRAYAMGWYRQAPGKERELVAAISIGGRTYYADSVKGRFTISRDNAKNTVYLQMNSLKPEDTAVYYCAAVRSYVKGGMYYWGQGTQVTVSS	low polyreactivity
QVQLVESGGGLVQAGGSLRLSCAASGFIFSNYAMGWYRQEPGKERELVAAISWSGTLTNYADSVKGRFTISRDNAKNTVYLQMNSLKPEDTAVYYCAAYGDYLYDYWGQGTQVTVSS	low polyreactivity
QVQLVESGGRLVQAGGSLRLSCAASGRIFAYYAMGWYRQAPGKERELVAAISRSGVSTYYADSVKGRFTISRDNAKNTVYLQMNSLKPEDTAVYYCAARWRSGFTSGDYWGQGTQVTVSS	low polyreactivity
